Assay results from publication PMC13354580 (Nature Communications, 2026).

Biological target: fluorescent Aβ (1–42) (fluorophore label; fluorophore and position not stated)
Experiment: fluorescence polarisation

B1: ABAD Y168G mutant, purified protein (enzyme, human)
chain: MAAACRSVKGLVAVITGGASGLGLATAERLVGQGASAVLLDLPNSGGEAQAKKLGNNCVFAPADVTSEKDVQTALALAKGKFGRVDVAVNCAGIAVASKTYNLKKGQTHTLEDFQRVLDVNLMGTFNVIRLVAGEMGQNEPDQGGQRGVIINTASVAAFEGQVGQAAGSASKGGIVGMTLPIARDLAPIGIRVMTIAPGLFGTPLLTSLPEKVCNFLASQVPFPSRLGDPAEYAHLVQAIIENPFLNGEVIRLDGAIRMQP
  fold reduction in the calculated Kd against WT: ~11 fold
